Measured values published in paper PMC3727926 (Molecular Biology of the Cell, 2013).

B1: His-Arf3^Q71L, recombinant histidine-tagged constitutively active Arf3 (natural protein, S. cerevisiae, UniProt P40994 1-183, looked up)
chain: MGNSISKVLGKLFGSKEMKILMLGLDKAGKTTILYKLKLNKIKTSTPTVGFNVETVTYKNVKFNMWDVGGLQRLRPLWRHYFPATTALIFVIDSSARNRMEEAKEELYSIIGEKEMENVVLLVWANKQDLKDAMKPQEVSDFLELEKNLKNQPWCVIGSNALSGQGLVEGLSWISNNTNVPKK
B2: GST-Bud2N1, GST-tagged first 120 residues of Bud2p (domain or fragment, S. cerevisiae, UniProt P33314 1-120, looked up)
chain: MSSNNEPAQSRTSYFKLNEFLSNVKHYKNTFKGEIQWCNNLSLNDWKTHYLQITSTGALTHSIDELTADSTNIQPIIKHLQQCRIEIIKDKHSSFKDINANCNFIIQVNTSGKDNKVYLR

What was measured:
Assay in all cases: pull-down
[1] = biological target: T1, GST-Bud2-N, GST-tagged N-terminal 336 amino acids of Bud2p (S. cerevisiae, UniProt P33314 1-336)
T1 sequence (looked up): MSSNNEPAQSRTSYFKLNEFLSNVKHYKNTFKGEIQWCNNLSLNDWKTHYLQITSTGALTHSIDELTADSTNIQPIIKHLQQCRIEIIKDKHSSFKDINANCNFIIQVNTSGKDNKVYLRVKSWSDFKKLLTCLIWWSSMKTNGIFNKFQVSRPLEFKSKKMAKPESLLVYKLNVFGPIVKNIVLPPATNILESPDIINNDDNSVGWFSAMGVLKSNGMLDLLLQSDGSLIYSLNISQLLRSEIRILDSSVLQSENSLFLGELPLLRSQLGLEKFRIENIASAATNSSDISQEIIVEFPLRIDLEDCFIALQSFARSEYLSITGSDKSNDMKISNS

[2] = biological target: T2, His-Arf3, purified, prebound with GTPγS or GDP (S. cerevisiae, UniProt P40994 1-183)
T2 sequence (looked up): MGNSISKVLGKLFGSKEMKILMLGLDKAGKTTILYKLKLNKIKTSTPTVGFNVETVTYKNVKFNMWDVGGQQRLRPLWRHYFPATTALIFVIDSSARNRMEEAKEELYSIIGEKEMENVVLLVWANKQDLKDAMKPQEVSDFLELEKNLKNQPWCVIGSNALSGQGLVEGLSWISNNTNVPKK

[3] = biological target: B1

Row | Binder | binding result [1] | binding result [2] | binding result [3]
1 | B1 | binds |  | 
2 | B2 |  | binds | binds
